From patent publication US20100322893A1 (MEDLMMUNE, published 2010)
Residue numbers refer to the chain shown, from its start. Blank lines part the entries; values can stand above or below the molecule they belong to.

How the values were obtained:
[1] = molecular target: B7-2 on Raji cells (UniProt P42081); assay: cell-based or functional assay; design: unit not given beside the values
[2] = molecular target: B7-1 on Raji cells (UniProt P33681); assay: cell-based or functional assay; design: unit not given beside the values
[3] = molecular target: T1, B7-1 coated on the plate of the stability RIA (human, UniProt P33681 35-242); assay: stability RIA: 35S-labelled in vitro translated CTLA-4 on a plate coated with B7-1, 10 mM DTT against no DTT
T1 construct: also called human B7-1 (RnD Systems, 140-B1)
T1 sequence (looked up): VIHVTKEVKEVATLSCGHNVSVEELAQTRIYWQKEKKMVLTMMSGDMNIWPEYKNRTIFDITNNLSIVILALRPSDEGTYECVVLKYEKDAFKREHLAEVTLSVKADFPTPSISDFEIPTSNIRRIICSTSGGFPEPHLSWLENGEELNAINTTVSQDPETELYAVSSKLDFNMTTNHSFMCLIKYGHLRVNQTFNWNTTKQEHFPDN
Protocol: (§1) CTLA-4 variants were screened for stability using the primary stability RIA (radio immunoassay) as described in Jermutus et al., (2001). In brief for each variant a linear DNA template was amplified, transcribed, the mRNA purified on G25 Sephadex® columns and quantified. For each variant in vitro translations in the presence of ³⁵S-labelled methionine were set up in duplicate at 30° C. for 30 min, one in non-reducing conditions and one in 10 mM DTT (dithiothreitol). The translations were stopped with PBS with 0.050 Tween 20, with DTT at the same concentration as the translations. The translation mixture was incubated on a plate coated with B7-1 for 1 hour at room temperature. Plates were washed three times in PBS with 0.05% Tween 20® and three times in PBS. The remaining radioactivity was eluted with 0.1 M triethylamine and quantified by liquid scintillation counting. A measure of the variants' stability was calculated as the percentage residual binding i.e. binding signal in presence of DTT, divided by binding signal in absence of DTT, multiplied by 100.

[4] = molecular target: T1, B7-1 coated on the plate of the …; assay: stability RIA: 35S-labelled in vitro translated CTLA-4 on a plate coated with B7-1, non-reducing conditions
Protocol: as §1

Sequence of B7-2 on Raji cells (P42081 24-329 limits assumed): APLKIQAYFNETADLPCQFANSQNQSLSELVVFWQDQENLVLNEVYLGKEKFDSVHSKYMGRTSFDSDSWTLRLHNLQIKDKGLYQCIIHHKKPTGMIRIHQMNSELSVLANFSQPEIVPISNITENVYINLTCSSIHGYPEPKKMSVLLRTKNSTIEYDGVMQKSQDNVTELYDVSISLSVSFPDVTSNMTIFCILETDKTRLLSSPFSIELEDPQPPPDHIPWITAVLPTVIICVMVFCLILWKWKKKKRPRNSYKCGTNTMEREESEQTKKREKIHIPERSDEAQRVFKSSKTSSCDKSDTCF

EC50, inhibition of IL-2 production in the Jurkat and Raji dual cell assay (B7-1 and B7-2 both free) [1]: 1.27e-08 | EC50, inhibition of IL-2 production in the Jurkat and Raji dual cell assay (B7-1 and B7-2 both free) [2]: 1.27e-08
Molecule: CTLA-4 human wild-type (SEQ ID NO: 8), CTLA-4-Fc form (from UniProt P16410 37-161) (Fc fusion; in M (unit assumed))

% Residual Binding (signal in 10 mM DTT divided by signal without DTT, times 100) [3]: 75% | Signal DTT- (RIA signal after non-reducing conditions, signal over background) [4]: 13.2 signal over background
B1: CTLA-4 variant Var 3 (SEQ ID 7), monomeric form with serine at position 121, translated in vitro (receptor)
chain: AMHVAQPAVVLASSRGIASFVCEYAPPGKATEVRVTVLRQADSQVTEVWAATYMMGNESTFPDDSICTGTFSGNQVNLTIRGLRAMDTGLYICEVELMYPPPYYLGIGNGTQIYVIDPEPSPDSD
modifications: 35S-labelled methionine

% Residual Binding (signal in 10 mM DTT divided by signal without DTT, times 100) [3]: 55% | Signal DTT- (RIA signal after non-reducing conditions, signal over background) [4]: 2.6 signal over background
B2: CTLA-4 variant Var 1 (SEQ ID 5), monomeric form with serine at position 121, translated in vitro (receptor)
chain: B1 chain with I17T, W49Y, F61S, P62L, R81Q
modifications: 35S-labelled methionine

% Residual Binding (signal in 10 mM DTT divided by signal without DTT, times 100) [3]: 11% | Signal DTT- (RIA signal after non-reducing conditions, signal over background) [4]: 29.8 signal over background
B3: CTLA-4 variant Var 2 (SEQ ID 6), monomeric form with serine at position 121, translated in vitro (receptor)
chain: B1 chain with S43G, T46S, W49C, P62L
modifications: 35S-labelled methionine
